Laboratory results published in patent US20120316071A1 (published 2012).
Residue numbers refer to the chain shown, from its start. Names may count otherwise. Values belong to the binder of their own block, whether it stands above or below them.

Columns and labels:
[1] = molecular target: T1, rHuman EGF R/Fc Chimera, CF (R&D Systems Cat#344-ER) (human, UniProt P00533 25-645); assay: ECL Multispot (MSD) assay, antigen spotted on plate, 10 nM Fab; blank spot of this row 182
T1 construct: Bought reagent; also called epidermal growth factor receptor; Fc part of the bought chimera not given

[2] = molecular target: T2, rHuman ErbB2/Fc Chimera, CF (R&D Systems Cat#1129-ER) (human, UniProt P04626 23-652); assay: as above
T2 construct: Bought reagent; also called human epidermal growth factor 2 receptor; Fc part of the bought chimera not given

[3] = molecular target: T3, rHuman P-Cadherin/Fc Chimera, CF (R&D Systems Cat#861-PC) (human, UniProt P22223 108-654); assay: as above
T3 construct: Bought reagent; Fc part of the bought chimera not given

[4] = molecular target: T4, rHuman CD44/Fc Chimera, CF (R&D Systems Cat#3660-CD) (human, UniProt P16070 21-220); assay: as above
T4 construct: Bought reagent; Fc part of the bought chimera not given

[5] = molecular target: T5, rHuman IGF-1 sR, CF (R&D Systems Cat#391-GR) (human, UniProt P08069 31-932); assay: as above
T5 construct: Bought soluble receptor; The column head prints only 'IGF-1'; also called insulin-like growth factor-1 soluble receptor

[6] = molecular target: T6, rHuman Notch-1/Fc Chimera, CF (R&D Systems Cat#3647-TK) (human, UniProt P46531 19-526); assay: as above
T6 construct: Bought reagent; Fc part of the bought chimera not given

[7] = molecular target: T7, rHuman HGF R/c-MET/Fc Chimera, CF (R&D Systems Cat#358-MT/CF) (human, UniProt P08581 25-932); assay: as above
T7 construct: Bought reagent; also called HGF R/Fc; hepatocyte growth factor receptor; Fc part of the bought chimera not given

[8] = molecular target: T8, rHuman Erythropoietin R/Fc Chimera, CF (R&D Systems Cat#963-ER) (human, UniProt P19235 25-250); assay: as above
T8 construct: Bought reagent; also called EPO R; EPO R/Fc; Fc part of the bought chimera not given
T8 sequence (looked up): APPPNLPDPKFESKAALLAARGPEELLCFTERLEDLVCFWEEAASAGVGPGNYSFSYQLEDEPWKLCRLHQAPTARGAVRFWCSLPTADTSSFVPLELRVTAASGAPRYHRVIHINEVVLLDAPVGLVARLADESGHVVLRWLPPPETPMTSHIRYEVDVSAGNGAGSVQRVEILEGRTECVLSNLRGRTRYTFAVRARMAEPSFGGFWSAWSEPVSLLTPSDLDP

[9] = molecular target: T9, rHuman Notch-1/Fc Chimera, CF (R&D Systems Cat#3647-TK) (human, UniProt P46531 19-526); assay: Multispot ECL (MSD) titration; antigen spotted on plate; Fab 930 nM; blank spot 1206
T9 construct: Bought Fc chimera; Fc part of the bought chimera not given

[10] = molecular target: T10, rHuman CD44/Fc Chimera, CF (R&D Systems Cat#3660-CD) (human, UniProt P16070 21-220); assay: as above
T10 construct: Bought Fc chimera; Fc part of the bought chimera not given

[11] = molecular target: T11, Recombinant Human DLL4 (R&D Systems Cat#1506-D4/CF) (human, UniProt Q9NR61 27-524); assay: as above
T11 construct: Bought recombinant protein; also called delta-like protein 4; rHuman DLL4

[12] = molecular target: T12, rHuman ErbB2/Fc Chimera, CF (R&D Systems Cat#1129-ER) (human, UniProt P04626 23-652); assay: as above
T12 construct: Bought Fc chimera; also called human epidermal growth factor 2 receptor; Fc part of the bought chimera not given

[13] = molecular target: T13, rHuman IGF-1 sR (IGF-1 sR), CF (R&D Systems Cat#391-GR) (human, UniProt P08069 31-932); assay: as above
T13 construct: Bought soluble receptor; also called insulin-like growth factor-1 soluble receptor

[14] = molecular target: T14, rHuman P-Cadherin/Fc Chimera, CF (R&D Systems Cat#861-PC) (human, UniProt P22223 108-654); assay: as above
T14 construct: Bought Fc chimera; Fc part of the bought chimera not given

[15] = molecular target: T15, rHuman Erythropoietin R/Fc Chimera, CF (R&D Systems Cat#963-ER) (human, UniProt P19235 25-250); assay: as above
T15 construct: Bought Fc chimera; also called EPO R/Fc; EPO R; Fc part of the bought chimera not given
T15 sequence (looked up): T8 sequence (looked up)

[16] = molecular target: T16, Recombinant Human DLL4 (R&D Systems Cat#1506-D4/CF) (human, UniProt Q9NR61 27-529); assay: ECL Multispot (MSD), antigen spotted; Fab 500 (µM); blank 439
T16 construct: Bought recombinant protein; also called delta-like protein 4; rHuman DLL4

[17] = molecular target: T17, rHuman HGF R/c-MET/Fc Chimera, CF (R&D Systems Cat#358-MT/CF) (human, UniProt P08581 25-932); assay: as above
T17 construct: Bought recombinant protein; also called HGF R/Fc; Fc part of the bought chimera not given

[18] = molecular target: T18, rHuman IGF-1 sR, CF (R&D Systems Cat#391-GR) (human, UniProt P08069 31-932); assay: as above
T18 construct: Bought recombinant soluble receptor; also called insulin-like growth factor-1 soluble receptor

ECL signal [1]: 296
ECL signal [2]: 221
ECL signal [3]: 449
ECL signal [4]: 221
ECL signal [5]: 344
ECL signal [6]: 251
ECL signal [7]: 319
ECL signal [8]: 222
B1: Fab VH1-46_IGHD6-6*01_IGHJ1*01 S102A/S103P/S104F (APF) & L6_IGKJ1*01 (Fab, V domains shown)
VH: QVQLVQSGAEVKKPGASVKVSCKASGYTFTSYYMHWVRQAPGQGLEWMGIINPSGGSTSYAQKFQGRVTMTRDTSTSTVYMELSSLRSEDTAVYYCAREEYAPFSAEYFQHWGQGTLVTVSS
VL: not shown
notes: Tested as a Fab made in E. coli; also called H:APF & L:wt; APF triple mutant

ECL signal [9]: 2210
ECL signal [10]: 1920
ECL signal [11]: 8160
ECL signal [12]: 2220
ECL signal [13]: 1920
ECL signal [14]: 2440
ECL signal [15]: 3010
B2: Fab VH1-46_IGHD6-13*01_IGHJ4*01 & O1_IGKJ1*01 (Fab, V domains shown)
VH: B1 VH with E100G, A102S, P103S, F104S, S105W, A106Y, E107D, Q110D, H111Y
VL: DIVMTQTPLSLPVTPGEPASISCRSSQSLLDSDDGNTYLDWYLQKPGQSPQLLIYTLSYRASGVPDRFSGSGSGTDFTLKISRVEAEDVGVYYCMQRIEFPSWTFGQGTKVEIKR
notes: Germline library Fab expressed in E. coli; VH was cloned into Plasmid A (CH1 constant region, His6 and Flag tags); The kappa VL was cloned into Plasmid C (kappa CL)

ECL signal [16]: 28900
ECL signal [17]: 760
ECL signal [18]: 613
B3: Fab VH1-46_IGHD6-6*01_IGHJ1*01 S102A/S103P/S104F (APF) & L6_IGKJ1*01 (Fab, V domains shown)
VH: B1 VH
VL: not shown
notes: Tested as a Fab made in E. coli: VH cloned in Plasmid A (CH1 constant region, His6 and Flag tags), VL in Plasmid C (kappa constant region); also called H:APF & L:wt; APF triple mutant
